Data: publication PMC6107238, “Conformational plasticity of the intrinsically disordered protein ASR1 modulates its function as a drought stress-responsive gene” (PLoS ONE, 2018)

T1: ASR1 (Abscisic, Stress, Ripening 1) (Solanum lycopersicum (tomato), UniProt Q08655 1-115)
T1 sequence: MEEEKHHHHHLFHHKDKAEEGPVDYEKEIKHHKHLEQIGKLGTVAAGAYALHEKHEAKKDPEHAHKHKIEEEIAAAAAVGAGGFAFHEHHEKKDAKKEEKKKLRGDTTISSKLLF

B1: FITC-oligoS (dsDNA)
DNA 1: AGTTCTGGTTGG
DNA 2: CCAACCAGAACT
B2: Tomato ASR1 (Abscisic, Stress, Ripening protein 1), untagged recombinant protein (natural protein, UniProt Q08655 1-115, looked up)
chain: T1 sequence
notes: ASR1 of tomato; 'peaks corresponding to the expected full-length protein were pooled'; 12.7 kDa by SLS; The cloning of ASR1 alone is not described; also called untagged ASR1; ASR1 recombinant protein
B3: FITC-oligoC (dsDNA)
DNA 1: TATTGGGCTTGG
DNA 2: CCAAGCCCAATA

Key:
[1] = biological target: T1, ASR1 (Abscisic, Stress, Ripening 1); test: fluorescence anisotropy; 100 uM ZnCl2; Buffer H: 100 mM NaCl, 20 mM HEPES pH 7.4, with 100 uM ZnCl2; 250 nM FITC-dsDNA; anisotropy temperature not stated (CD at 25 C); settings: protein: recombinant; tags: untagged in the main text (original His6 removed); label: 5' FITC on one strand; blunt
[2] = biological target: the molecule itself; test: SDS-PAGE; purified ASR1 at high protein concentrations on SDS-PAGE

Binder	Kd [1] [nM]	binding result [2]
B1	1080 ± 46	
B2		binds
B3	216 ± 10	
